Results taken from patent US20150322137A1 (EVEC, published 2015).

B1: EV046120 (antibody, human IgG1, lambda, V domains shown)
VH: EVQLVESGGGLVKPGGSLRLSCAASGFTFSSYSMNWVRQAPGKGLEWVSSISSSSSYIYYADSLKGRFTVSRDNAKKSLYLQMNSLRAEDTAVYYCARVDYGTNSEVGRFDPWGQGTLVTVSS
VL: QSVLTQPPSVSGTPGQRVTISCTGSSSNIGAGYAVHWYQQLPGTAPKLLIYDSINRPSGVPDRFSGSKSGTSASLAITGLQTEDEADYYCHSYDRSLSGSVFGGGTKLTVLG
B2: EV046113 (antibody, human IgG1, kappa, V domains shown)
VH: QVQLVESGGGLVRPGGSLRLSCAASGFTFSDYFMTWIRQAPGKGLEWVSYINSIGSVIFYADSVEGRFTVSRDNTMKSLFLQMNSLTAEDTAVYYCARSCRISYGASGGFSCGMDVWGQGTPVTVSS
VL: DIQMTQSPSSLSASVGDRVTITCQASQSIRENINWYQQKTGKAPKLLIYDASILETGVPSRFSGSGSGTHFTFTISSLQPEDMATYYCQQYHHLITFGQGTRLDIKR

Assays:
[1] = biological target: T1, F protein of human metapneumovirus strain JPS02-76 (type B1), on infectious virus (human metapneumovirus, strain JPS02-76 …, UniProt Q6WB98 19-539); test: cell-based or functional assay
[2] = biological target: T2, F protein of human metapneumovirus strain JPS05-21 (type B2), on infectious virus (human metapneumovirus, strain JPS05-21 …); test: cell-based or functional assay
[3] = biological target: T3, F protein of human metapneumovirus strain JPS03-180 (type A1), on infectious virus (human metapneumovirus, strain JPS03-180 …); test: cell-based or functional assay
[4] = biological target: T4, F protein of human metapneumovirus strain JPS03-178 (type A2), on infectious virus (human metapneumovirus, strain JPS03-178 …); test: cell-based or functional assay
[5] = biological target: T1, F protein of human metapneumovirus …; test: cell-based or functional assay; remark: listed apart in the source
[6] = biological target: T2, F protein of human metapneumovirus …; test: cell-based or functional assay; remark: listed apart in the source
[7] = biological target: T3, F protein of human metapneumovirus …; test: cell-based or functional assay; remark: listed apart in the source
[8] = biological target: T4, F protein of human metapneumovirus …; test: cell-based or functional assay; remark: listed apart in the source
[9] = biological target: T2, F protein of human metapneumovirus …; test: cell-based or functional assay; remark: listed apart in the source
[10] = biological target: T3, F protein of human metapneumovirus …; test: cell-based or functional assay; remark: listed apart in the source
[11] = biological target: T1, F protein of human metapneumovirus …; test: cell-based or functional assay; remark: listed apart in the source
[12] = biological target: T2, F protein of human metapneumovirus …; test: cell-based or functional assay; remark: listed apart in the source
[13] = biological target: T3, F protein of human metapneumovirus …; test: cell-based or functional assay; remark: listed apart in the source
[14] = biological target: T4, F protein of human metapneumovirus …; test: cell-based or functional assay; remark: listed apart in the source
[15] = biological target: T1, F protein of human metapneumovirus …; test: cell-based or functional assay; remark: listed apart in the source
[16] = biological target: HA-V5-Full, hMPV (JPS02-76) FP with HA-Tag downstream of the signal peptide and linker and V5-Tag do (human metapneumovirus, strain JPS02-76 …); test: cell fluorescent immunostaining, fixed transfected CHO-K1 cells
[17] = biological target: T1, F protein of human metapneumovirus …; test: cell-based or functional assay; remark: listed apart in the source
[18] = biological target: FP-TM(-)-His, His-Tag-added hMPV (JPS02-76) FP lacking the transmembrane region (amino acid residues 491 to … (human metapneumovirus, strain JPS02-76 …, UniProt Q6WB98 19-490)); test: SPR, Biacore T-200; antibody captured by anti-human IgG, FP-TM(-)-His as analyte

Binder	IC60, neutralizing activity (hMPV infection of LLC-MK2 cells; GraphPad Prism 6) [1] [µg/mL]	IC60, neutralizing activity (hMPV infection of LLC-MK2 cells; GraphPad Prism 6) [2] [µg/mL]	IC60, neutralizing activity (hMPV infection of LLC-MK2 cells; GraphPad Prism 6) [3] [µg/mL]	IC60, neutralizing activity (hMPV infection of LLC-MK2 cells; GraphPad Prism 6) [4] [µg/mL]	IC90, neutralizing activity (hMPV infection of LLC-MK2 cells; GraphPad Prism 6) [5] [µg/mL]	IC90, neutralizing activity (hMPV infection of LLC-MK2 cells; GraphPad Prism 6) [6] [µg/mL]	IC90, neutralizing activity (hMPV infection of LLC-MK2 cells; GraphPad Prism 6) [7] [µg/mL]	IC90, neutralizing activity (hMPV infection of LLC-MK2 cells; GraphPad Prism 6) [8] [µg/mL]	IC50, neutralizing activity (hMPV infection of LLC-MK2 cells) [9] [µg/mL]	IC50, neutralizing activity (hMPV infection of LLC-MK2 cells) [10] [µg/mL]	IC50, neutralizing activity (hMPV infection of LLC-MK2 cells; GraphPad Prism 6) [12] [µg/mL]	IC50, neutralizing activity (hMPV infection of LLC-MK2 cells; GraphPad Prism 6) [13] [µg/mL]	IC50, neutralizing activity (hMPV infection of LLC-MK2 cells; GraphPad Prism 6) [14] [µg/mL]	IC50, cell-to-cell spread inhibitory activity (LLC-MK2 cells stably expressing TMPRSS2) [15] [µg/mL]	IC90, cell-to-cell spread inhibitory activity (LLC-MK2 cells stably expressing TMPRSS2) [15] [µg/mL]	further results
B1	0.344	0.301	0.421	0.138	1.65	0.694	1.88	0.653	0.24	0.32	0.249	0.3	0.0971	0.0132	0.0669	IC50, neutralizing activity (hMPV infection of LLC-MK2 cells; GraphPad Prism 6) [11]: 0.241 µg/mL
B2	0.819	0.652	0.522	0.76	1.48	2.29	1.39	1.56	0.39	0.38	0.491	0.418	0.645	0.108	0.707	binding result [16]: binds; IC50, neutralizing activity (hMPV infection of LLC-MK2 cells) [17]: 0.68 µg/mL; Kd [18]: 0.265 nM; koff [18]: 0.000123 s⁻¹; kon [18]: 463000 M⁻¹ s⁻¹
